Measured values: patent US20100260775A1 (Pfizer, published 2010)
Where two headings read alike, the source gives them in different places.

Columns and labels:
Experiment in all cases: cell-based or functional assay
rat NGF [1] = molecular target: T1, rat NGF (rat, UniProt P25427 122-241, limits assumed)
human NGF = human NGF (human, UniProt P01138 122-241, limits assumed)
rat NGF [2] = molecular target: T1, rat NGF; remark: listed apart in the source
rat NGF [3] = molecular target: T1, rat NGF; remark: listed apart in the source

T1 sequence (P25427 122-241 limits assumed): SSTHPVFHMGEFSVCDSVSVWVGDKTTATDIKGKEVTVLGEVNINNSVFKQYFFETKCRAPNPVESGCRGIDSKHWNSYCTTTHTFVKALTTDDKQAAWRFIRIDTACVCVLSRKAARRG
Chain of human NGF (P01138 122-241 limits assumed): as the sequence (P25427 122-241 limits assumed) above, with T3S, V6I, M9R, T37M, A60D, E65D, T92M, D94G, A117V, G120A counted along it

Row | Molecule | IC50, inhibition of rat NGF-dependent survival of mouse E13.5 trigeminal neurons, 1.5 pM NGF (rat NGF [1]) [pM] | IC50, inhibition of rat NGF-dependent survival of mouse E13.5 trigeminal neurons, 15 pM NGF (rat NGF [1]) [pM] | IC50, inhibition of human NGF-dependent survival of mouse E13.5 trigeminal neurons, 1.5 pM NGF (human NGF) [pM] | IC50, inhibition of human NGF-dependent survival of mouse E13.5 trigeminal neurons, 15 pM NGF (human NGF) [pM] | IC50, inhibition of rat NGF-dependent survival of mouse E13.5 trigeminal neurons, 1.5 pM NGF (rat NGF [2]) [pM] | IC50, inhibition of rat NGF-dependent survival of mouse E13.5 trigeminal neurons, 15 pM NGF (rat NGF [2]) [pM] | IC50, inhibition of NGF-dependent survival of mouse E13.5 trigeminal neurons, 15 pM rat NGF (rat NGF [3]) [pM]
1 | mouse antibody 911 (Fab) | 34.6 | 161 | 63.5 | 322 | – | – | –
2 | 3C (Fab) (Fab, V domains shown) VH: QVQLQESGPGLVKPSETLSLTCTVSGFSLIGYDLNWIRQPPGKGLEWIGIIWGDGTTDYNSAVKSRVTISKDTSKNQFSLKLSSVTAADTAVYYCARGGYWYATSYYFDYWGQGTLVTVS VL: DIQMTQSPSSLSASVGDRVTITCRASQSISNNLNWYQQKPGKAPKLLIYYTSRFHSGVPSRFSGSGSGTDFTFTISSLQPEDIATYYCQQERTLPYTFGQGTKLEIKR | – | – | 5.6 | 80.9 | 6 | 31.6 | –
3 | 8L2-6D5 (CDR-grafted antibody with framework mutation V71K) (Fab, V domains shown) VH: QVQLQESGPGLVKPSETLSLTCTVSGFSLIGYDINWIRQPPGKGLEWIGMIWGDGTTDYNSALKSRVTISKDTSKNQFSLKLSSVTAADTAVYYCARGGYYYGTSYYFDYWGQGTLVTVS VL: DIQMTQSPSSLSASVGDRVTITCRASQDISNHLNWYQQKPGKAPKLLIYYISRFHSGVPSRFSGSGSGTDFTFTISSLQPEDIATYYCQQSKTLPYTFGQGTKLEIKR | – | – | 462 | 1580 | 169 | 730 | –
4 | H19-L129 (Fab, V domains shown) VH: QVQLQESGPGLVKPSETLSLTCTVSGFSLIGYDLNWIRQPPGKGLEWIGIIWGDGTTDYNSAVKSRVTISKDTSKNQFSLKLSSVTAADTAVYYCARGGYYYGTSYYFDYWGQGTLVTVS VL: DIQMTQSPSSLSASVGDRVTITCRASQSISNNLNWYQQKPGKAPKLLIYYTSRFHSGVPSRFSGSGSGTDFTFTISSLQPEDIATYYCQQSKTLPYTFGQGTKLEIKR | – | – | 9.6 | 60.1 | 6 | 31 | –
5 | antibody E3 (Fab) (Fab, V domains shown) VH: QVQLQESGPGLVKPSETLSLTCTVSGFSLIGYDLNWIRQPPGKGLEWIGIIWGDGTTDYNSAVKSRVTISKDTSKNQFSLKLSSVTAADTAVYYCARGGYWYATSYYFDYWGQGTLVTVS VL: DIQMTQSPSSLSASVGDRVTITCRASQSISNNLNWYQQKPGKAPKLLIYYTSRFHSGVPSRFSGSGSGTDFTFTISSLQPEDIATYYCQQEHTLPYTFGQGTKLEIKR | – | – | < 1.2 | < 21 | < 1.3 | < 8.3 | ~31.6
